The supplement of paper PMC9112550, “Optimization of the antimicrobial peptide Bac7 by deep mutational scanning” (BMC Biology, 2022)

System: Escherichia coli TOP10
Experiment: shrunken log2 fold change of peptide-encoding DNA abundance (4.5 h post-induction vs induction); higher = less antimicrobial activity (less host growth inhibition)
Settings: time post-induction: 4.5 h; library: site-saturation at positions 5, 18, 19, 20
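Note: peptides expressed intracellularly from a pBAD plasmid library in pooled LB shake-flask culture, induced with 0.3% L-arabinose, DNA abundance read by NGS, three biological replicates, DESeq2 with apeglm shrinkage.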

Sequence: RRIRARPPRLPRPRPRPHIDPRP
- shrunken log2 fold change: 0.205

Sequence: RRIRARPPRLPRPRPRPHIFPRP
- shrunken log2 fold change: 0.141

Sequence: RRIRARPPRLPRPRPRPHIGPRP
- shrunken log2 fold change: -0.175

Sequence: RRIRARPPRLPRPRPRPHLPPRP
- shrunken log2 fold change: 0.0943

Sequence: RRIRARPPRLPRPRPRPHMKPRP
- shrunken log2 fold change: -0.188

Sequence: RRIRARPPRLPRPRPRPHNHPRP
- shrunken log2 fold change: -0.436

Sequence: RRIRARPPRLPRPRPRPHNIPRP
- shrunken log2 fold change: -0.124

Sequence: RRIRARPPRLPRPRPRPHNKPRP
- shrunken log2 fold change: -0.398

Sequence: RRIRARPPRLPRPRPRPHNSPRP
- shrunken log2 fold change: 1.18

Sequence: RRIRARPPRLPRPRPRPHPAPRP
- shrunken log2 fold change: 0.478

Sequence: RRIRARPPRLPRPRPRPHPYPRP
- shrunken log2 fold change: -0.484

Sequence: RRIRARPPRLPRPRPRPHRCPRP
- shrunken log2 fold change: 0.0993

Sequence: RRIRARPPRLPRPRPRPHRDPRP
- shrunken log2 fold change: 0.0774

Sequence: RRIRARPPRLPRPRPRPHRKPRP
- shrunken log2 fold change: -0.000548

Sequence: RRIRARPPRLPRPRPRPHWVPRP
- shrunken log2 fold change: 0.0153

Sequence: RRIRARPPRLPRPRPRPHYHPRP
- shrunken log2 fold change: -0.332

Sequence: RRIRARPPRLPRPRPRPHYVPRP
- shrunken log2 fold change: -0.255

Sequence: RRIRARPPRLPRPRPRPICDPRP
- shrunken log2 fold change: 0.497

Sequence: RRIRARPPRLPRPRPRPICVPRP
- shrunken log2 fold change: 0.154

Sequence: RRIRARPPRLPRPRPRPIDMPRP
- shrunken log2 fold change: -0.0819

Sequence: RRIRARPPRLPRPRPRPIIAPRP
- shrunken log2 fold change: 0.00311

Sequence: RRIRARPPRLPRPRPRPIIGPRP
- shrunken log2 fold change: -0.065

Sequence: RRIRARPPRLPRPRPRPIKQPRP
- shrunken log2 fold change: -0.0628

Sequence: RRIRARPPRLPRPRPRPIKSPRP
- shrunken log2 fold change: 0.226

Sequence: RRIRARPPRLPRPRPRPILEPRP
- shrunken log2 fold change: -0.0126

Sequence: RRIRARPPRLPRPRPRPILHPRP
- shrunken log2 fold change: -0.0341

Sequence: RRIRARPPRLPRPRPRPILMPRP
- shrunken log2 fold change: 0.143

Sequence: RRIRARPPRLPRPRPRPILQPRP
- shrunken log2 fold change: 0.0186

Sequence: RRIRARPPRLPRPRPRPILSPRP
- shrunken log2 fold change: 0.376

Sequence: RRIRARPPRLPRPRPRPILYPRP
- shrunken log2 fold change: -0.348

Sequence: RRIRARPPRLPRPRPRPINFPRP
- shrunken log2 fold change: 0.0601

Sequence: RRIRARPPRLPRPRPRPIPCPRP
- shrunken log2 fold change: 0.0669

Sequence: RRIRARPPRLPRPRPRPIQFPRP
- shrunken log2 fold change: 0.166

Sequence: RRIRARPPRLPRPRPRPIQGPRP
- shrunken log2 fold change: 0.0518

Sequence: RRIRARPPRLPRPRPRPIQWPRP
- shrunken log2 fold change: 0.0649

Sequence: RRIRARPPRLPRPRPRPIREPRP
- shrunken log2 fold change: -0.018

Sequence: RRIRARPPRLPRPRPRPIRNPRP
- shrunken log2 fold change: -0.179

Sequence: RRIRARPPRLPRPRPRPITEPRP
- shrunken log2 fold change: -0.38

Sequence: RRIRARPPRLPRPRPRPITRPRP
- shrunken log2 fold change: 0.00663

Sequence: RRIRARPPRLPRPRPRPITWPRP
- shrunken log2 fold change: 0.0845

Sequence: RRIRARPPRLPRPRPRPIVGPRP
- shrunken log2 fold change: -0.0201

Sequence: RRIRARPPRLPRPRPRPIWYPRP
- shrunken log2 fold change: -0.147

Sequence: RRIRARPPRLPRPRPRPKAPPRP
- shrunken log2 fold change: 0.56

Sequence: RRIRARPPRLPRPRPRPKCAPRP
- shrunken log2 fold change: 0.363

Sequence: RRIRARPPRLPRPRPRPKDLPRP
- shrunken log2 fold change: -0.0598

Sequence: RRIRARPPRLPRPRPRPKDQPRP
- shrunken log2 fold change: 0.504

Sequence: RRIRARPPRLPRPRPRPKDWPRP
- shrunken log2 fold change: 0.578

Sequence: RRIRARPPRLPRPRPRPKEPPRP
- shrunken log2 fold change: 0.991

Sequence: RRIRARPPRLPRPRPRPKERPRP
- shrunken log2 fold change: 0.415

Sequence: RRIRARPPRLPRPRPRPKFGPRP
- shrunken log2 fold change: 0.581

Sequence: RRIRARPPRLPRPRPRPKFMPRP
- shrunken log2 fold change: 0.0584

Sequence: RRIRARPPRLPRPRPRPKHWPRP
- shrunken log2 fold change: 0.593

Sequence: RRIRARPPRLPRPRPRPKIKPRP
- shrunken log2 fold change: 0.0665

Sequence: RRIRARPPRLPRPRPRPKKKPRP
- shrunken log2 fold change: 0.119

Sequence: RRIRARPPRLPRPRPRPKKYPRP
- shrunken log2 fold change: -0.232

Sequence: RRIRARPPRLPRPRPRPKLMPRP
- shrunken log2 fold change: 0.357

Sequence: RRIRARPPRLPRPRPRPKLVPRP
- shrunken log2 fold change: 0.106

Sequence: RRIRARPPRLPRPRPRPKMVPRP
- shrunken log2 fold change: 0.116

Sequence: RRIRARPPRLPRPRPRPKNFPRP
- shrunken log2 fold change: 0.251

Sequence: RRIRARPPRLPRPRPRPKPPPRP
- shrunken log2 fold change: 0.959

Sequence: RRIRARPPRLPRPRPRPKQRPRP
- shrunken log2 fold change: 0.558

Sequence: RRIRARPPRLPRPRPRPKRVPRP
- shrunken log2 fold change: 0.455

Sequence: RRIRARPPRLPRPRPRPKSAPRP
- shrunken log2 fold change: 0.709

Sequence: RRIRARPPRLPRPRPRPKSYPRP
- shrunken log2 fold change: -0.145

Sequence: RRIRARPPRLPRPRPRPKTFPRP
- shrunken log2 fold change: -0.0543

Sequence: RRIRARPPRLPRPRPRPKVRPRP
- shrunken log2 fold change: 0.047

Sequence: RRIRARPPRLPRPRPRPKVSPRP
- shrunken log2 fold change: 0.669

Sequence: RRIRARPPRLPRPRPRPKWEPRP
- shrunken log2 fold change: 0.0262

Sequence: RRIRARPPRLPRPRPRPKYDPRP
- shrunken log2 fold change: -0.293

Sequence: RRIRARPPRLPRPRPRPLAFPRP
- shrunken log2 fold change: 0.703

Sequence: RRIRARPPRLPRPRPRPLAQPRP
- shrunken log2 fold change: 0.578

Sequence: RRIRARPPRLPRPRPRPLDDPRP
- shrunken log2 fold change: 0.875

Sequence: RRIRARPPRLPRPRPRPLDTPRP
- shrunken log2 fold change: 0.39

Sequence: RRIRARPPRLPRPRPRPLEMPRP
- shrunken log2 fold change: 0.75

Sequence: RRIRARPPRLPRPRPRPLFRPRP
- shrunken log2 fold change: 0.881

Sequence: RRIRARPPRLPRPRPRPLHDPRP
- shrunken log2 fold change: 0.341

Sequence: RRIRARPPRLPRPRPRPLIQPRP
- shrunken log2 fold change: 0.0545

Sequence: RRIRARPPRLPRPRPRPLKLPRP
- shrunken log2 fold change: -0.152

Sequence: RRIRARPPRLPRPRPRPLKMPRP
- shrunken log2 fold change: 0.283

Sequence: RRIRARPPRLPRPRPRPLLCPRP
- shrunken log2 fold change: 0.612

Sequence: RRIRARPPRLPRPRPRPLLHPRP
- shrunken log2 fold change: 0.264

Sequence: RRIRARPPRLPRPRPRPLLQPRP
- shrunken log2 fold change: 0.171

Sequence: RRIRARPPRLPRPRPRPLPFPRP
- shrunken log2 fold change: -0.249

Sequence: RRIRARPPRLPRPRPRPLQHPRP
- shrunken log2 fold change: 1.22

Sequence: RRIRARPPRLPRPRPRPLQWPRP
- shrunken log2 fold change: 0.539

Sequence: RRIRARPPRLPRPRPRPLRAPRP
- shrunken log2 fold change: 1.19

Sequence: RRIRARPPRLPRPRPRPLSHPRP
- shrunken log2 fold change: 0.186

Sequence: RRIRARPPRLPRPRPRPLSIPRP
- shrunken log2 fold change: -0.308

Sequence: RRIRARPPRLPRPRPRPLTIPRP
- shrunken log2 fold change: 0.0223

Sequence: RRIRARPPRLPRPRPRPLTVPRP
- shrunken log2 fold change: 0.242

Sequence: RRIRARPPRLPRPRPRPLVAPRP
- shrunken log2 fold change: 0.58

Sequence: RRIRARPPRLPRPRPRPLVHPRP
- shrunken log2 fold change: -0.139

Sequence: RRIRARPPRLPRPRPRPLYEPRP
- shrunken log2 fold change: 0.000796

Sequence: RRIRARPPRLPRPRPRPLYTPRP
- shrunken log2 fold change: -0.0964

Sequence: RRIRARPPRLPRPRPRPLYWPRP
- shrunken log2 fold change: -0.194

Sequence: RRIRARPPRLPRPRPRPMCKPRP
- shrunken log2 fold change: 0.0809

Sequence: RRIRARPPRLPRPRPRPMDEPRP
- shrunken log2 fold change: 1.02

Sequence: RRIRARPPRLPRPRPRPMDWPRP
- shrunken log2 fold change: 0.341

Sequence: RRIRARPPRLPRPRPRPMEPPRP
- shrunken log2 fold change: 0.0999

Sequence: RRIRARPPRLPRPRPRPMESPRP
- shrunken log2 fold change: 0.0501

Sequence: RRIRARPPRLPRPRPRPMGTPRP
- shrunken log2 fold change: 0.304

Sequence: RRIRARPPRLPRPRPRPMGWPRP
- shrunken log2 fold change: 0.468

Sequence: RRIRARPPRLPRPRPRPMIQPRP
- shrunken log2 fold change: 0.0771

Sequence: RRIRARPPRLPRPRPRPMISPRP
- shrunken log2 fold change: 0.501

Sequence: RRIRARPPRLPRPRPRPMKWPRP
- shrunken log2 fold change: 0.126

Sequence: RRIRARPPRLPRPRPRPMLWPRP
- shrunken log2 fold change: 0.183

Sequence: RRIRARPPRLPRPRPRPMMCPRP
- shrunken log2 fold change: 0.544

Sequence: RRIRARPPRLPRPRPRPMNLPRP
- shrunken log2 fold change: -0.313

Sequence: RRIRARPPRLPRPRPRPMNTPRP
- shrunken log2 fold change: 0.0292

Sequence: RRIRARPPRLPRPRPRPMQDPRP
- shrunken log2 fold change: 0.188

Sequence: RRIRARPPRLPRPRPRPMQNPRP
- shrunken log2 fold change: 0.767

Sequence: RRIRARPPRLPRPRPRPMTMPRP
- shrunken log2 fold change: 0.245

Sequence: RRIRARPPRLPRPRPRPMVRPRP
- shrunken log2 fold change: 0.348

Sequence: RRIRARPPRLPRPRPRPMWCPRP
- shrunken log2 fold change: 0.172

Sequence: RRIRARPPRLPRPRPRPMWSPRP
- shrunken log2 fold change: 0.0725

Sequence: RRIRARPPRLPRPRPRPMYCPRP
- shrunken log2 fold change: 0.0455

Sequence: RRIRARPPRLPRPRPRPNAKPRP
- shrunken log2 fold change: 0.262

Sequence: RRIRARPPRLPRPRPRPNCDPRP
- shrunken log2 fold change: 0.476

Sequence: RRIRARPPRLPRPRPRPNCIPRP
- shrunken log2 fold change: -0.113

Sequence: RRIRARPPRLPRPRPRPNCLPRP
- shrunken log2 fold change: -0.111

Sequence: RRIRARPPRLPRPRPRPNCYPRP
- shrunken log2 fold change: -0.211

Sequence: RRIRARPPRLPRPRPRPNDFPRP
- shrunken log2 fold change: -0.214

Sequence: RRIRARPPRLPRPRPRPNEDPRP
- shrunken log2 fold change: 0.334

Sequence: RRIRARPPRLPRPRPRPNGGPRP
- shrunken log2 fold change: -0.01

Sequence: RRIRARPPRLPRPRPRPNHHPRP
- shrunken log2 fold change: -0.223

Sequence: RRIRARPPRLPRPRPRPNIAPRP
- shrunken log2 fold change: 0.464

Sequence: RRIRARPPRLPRPRPRPNIFPRP
- shrunken log2 fold change: 0.0429

Sequence: RRIRARPPRLPRPRPRPNIQPRP
- shrunken log2 fold change: -0.122

Sequence: RRIRARPPRLPRPRPRPNKEPRP
- shrunken log2 fold change: -0.211

Sequence: RRIRARPPRLPRPRPRPNKFPRP
- shrunken log2 fold change: -0.3

Sequence: RRIRARPPRLPRPRPRPNLYPRP
- shrunken log2 fold change: -0.345

Sequence: RRIRARPPRLPRPRPRPNMDPRP
- shrunken log2 fold change: -0.00909

Sequence: RRIRARPPRLPRPRPRPNNDPRP
- shrunken log2 fold change: 0.026

Sequence: RRIRARPPRLPRPRPRPNNFPRP
- shrunken log2 fold change: -0.236

Sequence: RRIRARPPRLPRPRPRPNNRPRP
- shrunken log2 fold change: -0.326

Sequence: RRIRARPPRLPRPRPRPNVGPRP
- shrunken log2 fold change: 0.251

Sequence: RRIRARPPRLPRPRPRPNVYPRP
- shrunken log2 fold change: -0.115

Sequence: RRIRARPPRLPRPRPRPNWQPRP
- shrunken log2 fold change: -0.0264

Sequence: RRIRARPPRLPRPRPRPNYHPRP
- shrunken log2 fold change: -0.425

Sequence: RRIRARPPRLPRPRPRPPCNPRP
- shrunken log2 fold change: 0.0888

Sequence: RRIRARPPRLPRPRPRPPDFPRP
- shrunken log2 fold change: 0.708

Sequence: RRIRARPPRLPRPRPRPPECPRP
- shrunken log2 fold change: 0.327

Sequence: RRIRARPPRLPRPRPRPPFCPRP
- shrunken log2 fold change: 0.31

Sequence: RRIRARPPRLPRPRPRPPFNPRP
- shrunken log2 fold change: 0.167

Sequence: RRIRARPPRLPRPRPRPPFVPRP
- shrunken log2 fold change: 1.42

Sequence: RRIRARPPRLPRPRPRPPFWPRP
- shrunken log2 fold change: 0.914

Sequence: RRIRARPPRLPRPRPRPPGQPRP
- shrunken log2 fold change: 0.0736

Sequence: RRIRARPPRLPRPRPRPPLEPRP
- shrunken log2 fold change: 0.583

Sequence: RRIRARPPRLPRPRPRPPLLPRP
- shrunken log2 fold change: 0.543

Sequence: RRIRARPPRLPRPRPRPPMEPRP
- shrunken log2 fold change: 0.587
